Eleven molecules from patent US20240376185A1 (SMIVET B V, published 2024) can be followed below.

Assay [1] addresses T1, tetanus neurotoxin (TeNT), authentic tetanus holotoxin (Clostridium tetani, UniProt P04958 2-1315). Put plainly: bridging ELISA: coated TeNT, SDA, biotinylated TeNT, StrepPO (bivalent binding). For orientation: An ELISA detects its analyte on a solid surface through an enzyme-linked reagent.
The target of assay [2] is T1, tetanus neurotoxin (TeNT), authentic …. Description: ELISA: directly coated TeNT, anti-his6 PO.
In assay [3] the target is dog IgG (chrompure dog IgG) (dog).
The target in assay [4] is T1, tetanus neurotoxin (TeNT), authentic …. Put plainly: ELISA: directly coated TeNT, goat anti-llama Ig PO.
For assay [5] the target is unchanged. Description: GT1b-TeNT inhibition ELISA.
For assay [6] the target is unchanged. Description: ELISA: directly coated TeNT, goat anti-llama Ig PO. This is another data set of the same source.
The target is the same in assay [7]. Description: GT1b-TeNT inhibition ELISA. This is another data set of the same source.
Assay [8] shares this target. Description: ELISA: directly coated TeNT, anti-his6 PO. The source holds these as a separate data set.
Assay [9] deals with dog IgG (chrompure dog IgG) (dog). This is another data set of the same source.
Assay [10] addresses T1, tetanus neurotoxin (TeNT), authentic …. Description: bridging ELISA: coated TeNT, SDA, biotinylated TeNT, StrepPO (bivalent binding). This is another data set of the same source.
A further assay deals with T2, Cat albumin (cat, UniProt P49064 25-608).
T2 construct: also called Feline albumin; Feline Alb
Description: BLI (Octet Red96), SDA on Ni-NTA sensor, albumin as analyte. In general terms: In BLI a coated tip is dipped into the sample, and binding shifts an interference pattern.

The target in another assay is T3, Horse albumin (horse, UniProt P35747 25-607).
T3 construct: also called Equine albumin; Equine Alb
The assay is described as above.

In a further assay the target is T4, Dog albumin (dog, UniProt P49822 25-608).
T4 construct: also called Canine albumin; Canine Alb
Described as above.

Assay [11] deals with T1, tetanus neurotoxin (TeNT), authentic …. Put plainly: BLI (Octet Red96): biotinylated SDA on SA sensor, TeNT as analyte.
The target of assay [12] is T5, Tetanus neurotoxin (TeNT), authentic tetanus holotoxin (Clostridium tetani, UniProt P04958 2-1315). Put plainly: BLI (Octet Red96), biotinylated SDA on SA sensor, TeNT as analyte.
The target in assay [13] is T5, Tetanus neurotoxin (TeNT), authentic ….

Where two headings read alike, the source gives them in different places.

B1: SVG06L (VHH)
VHH: QVQLQESGGALVQPGGSLRLSCAASGFPFSAYDMTWVRQAPGQGLEWVSTIHKSGGITTYADSVKGRFTISRDNAKNTLYLQMNNLESEDTAVYYCAKALRAHNSDYVGRNALGSWGEGTLVTVSS
B1: the “Effective SDA Concentration at A450 0.3” value in assay [1] is more than 1000 ng/mL. The “Effective SDA Concentration at A450 0.15” value in assay [2] and in assay [4] was more than 1000 ng/mL each time. The binding result in assay [2] is reported as “no binding (tested: 1000 ng/ml (A450 0.15 not reached))”. The “Effective SDA Concentration at A450 0.2” value in assay [3] came to 164 ng/mL. Moreover, the “Effective SDA Concentration at A450 0.56” value in [5] was more than 1000 ng/mL. Further, the maximal absorbance value came to 0.07 A450 in assay [6], 0.05 A450 in [8], 0.56 A450 in assay [9] and 0.14 A450 in [10]. Further, in [7], the “minimal absorbance value (GT1b-TeNT inhibition)” value came to 0.8 A450.

B2: SVG13L (VHH)
VHH: QVQLQESGGGLVQPGGSLRLSCEASGFTFDDYGMSWVRQAPGKGLEWVSSLTPNGGSTYYADSVKGRFTISRDNAKNTLYLQMNSLKPEDTALYYCAKNSYYGAMDYWGKGTLVTVSS
Regarding B2, the “Effective SDA Concentration at A450 0.3” value in assay [1] is more than 1000 ng/mL. Besides, the “Effective SDA Concentration at A450 0.15” value in assay [2] and in assay [4] was more than 1000 ng/mL throughout. The binding result in [2] is “no binding (tested: 1000 ng/ml (A450 0.15 not reached))”. Besides, in assay [5], the “Effective SDA Concentration at A450 0.56” value is more than 1000 ng/mL. Moreover, the maximal absorbance value came to 0.09 A450 in assay [6], 0.08 A450 in assay [8], 0.16 A450 in assay [9] and 0.17 A450 in assay [10]. Also, the “minimal absorbance value (GT1b-TeNT inhibition)” value in assay [7] is 0.72 A450.

B3: SVA06L (VHH)
VHH: QVQLQESGGRLVQAEDSLRLSCAASGRTFVSYDMGWFRQAPGKEREFVAAINWRGYTTDYVDSVKGRFFISRDIAKSTVYLQMNNLKPEDTAVYYCAARQMSGSSRYSPPGRVGYDFWGQGTQVTVSS
In general, Kd refers to the concentration at which binding is half-saturated. A low value points to tighter binding. The koff is the first-order rate constant of dissociation. The low end stands for a long-lived complex, the high end for a short-lived complex. By kon is commonly meant the second-order rate constant of association. Lower therefore signals slow association. B3: the results for the Kd in the assay with Cat albumin, with Horse albumin and with Dog albumin were 1.2 nM, 13.5 nM and 3.16 nM, respectively. The koff with Cat albumin was found to be 0.000878 s⁻¹; with Horse albumin it was 0.00977 s⁻¹; with Dog albumin, 0.00224 s⁻¹. Further, the on-rate (kon) with Cat albumin worked out at 729000 M⁻¹ s⁻¹; with Horse albumin, 726000 M⁻¹ s⁻¹; in the assay with Dog albumin, 711000 M⁻¹ s⁻¹.

B4: SVT15L (VHH)
VHH: QVQLQESGGGLVQTGGSLRLSCRASGRAFANYHFGWFRQAPGKDREFVASISWKGGSTYYANFALGRFTSSVDRAESSVYLQMSGLTPEDTATYYCAAHDGGDWNYHTGMDYWGKGILVTVSS
With B4, in [11], the Kd turned out to be 0.413 nM, the koff came to 3.87e-05 s⁻¹ and the kon is 93600 M⁻¹ s⁻¹.

B5: SVT15L (VHH)
VHH: B4 VHH
For B5, in [12], the Kd was 0.772 nM, the koff was 8.57e-05 s⁻¹ and the kon came out at 111000 M⁻¹ s⁻¹.

B6: SVT03L (VHH)
VHH: QVQLQQSGGGSVQTGDSLTLSCTASGGSLNSYFVGWFRQSGGKEREFVSVIARTGRSTSYADSVKGRFTISRDNAANTVFLTMNNLRPDDTAIYYCAAVGRPGVLHLTQSYDYWGQGTQVTVSS
In assay [13], B6 came in with a Kd of 0.0014 nM, a koff of 6.64e-06 s⁻¹ and a kon of 4.62e+06 M⁻¹ s⁻¹.

B7: SVT06L (VHH)
VHH: QVQLQESGGGSVQAGGSLRLSCTASELSYDDYTIAWFRRAAGEGRVEDGEGVASITKSYDRAYDNKINYGHSVKGRFTISRDNAKNTVYLQMTDLLPSDTAVYYCALDITPPGGVGASLTEGFLFDYWGQGTQVTVSS
With B7, the “Effective SDA Concentration at A450 0.3” value in assay [1] worked out at 64 ng/mL. This molecule came in with a Kd in assay [11] of 0.535 nM. Besides, in assay [11], the koff was found to be 6.27e-05 s⁻¹. In [11], this molecule yielded a kon of 117000 M⁻¹ s⁻¹. Further, the “Effective SDA Concentration at A450 0.15” value in assay [2] worked out at 4.9 ng/mL; in [4], 14 ng/mL. In assay [5], the “Effective SDA Concentration at A450 0.56” value was 33 ng/mL. The values for the maximal absorbance value in [6], in assay [8] and in [10] were 0.32 A450, 1.44 A450 and 0.35 A450, respectively. The “minimal absorbance value (GT1b-TeNT inhibition)” value in assay [7] was found to be 0.27 A450.

B8: SVT06L (VHH)
VHH: B7 VHH
In [12], B8 came in with a Kd of 0.224 nM, a koff of 0.000113 s⁻¹ and a kon of 503000 M⁻¹ s⁻¹.

B9: SVT15-3FW4M-GS2-SVG13M4-H6 (bispecific antibody)
chain: QVQLQESGGGLVQTGGSLRLSCRASGRAFANYHFGWFRQAPGKDREFVASISWKGGSTYYANFALGRFTSSVDRAESSVYLQMSGLTPEDTATYYCAAHDGGDWNYHTGMDYWGQGTQVTVSSGGGGSGGGSEVQLVESGGGLVQPGGSLRLSCEASGFTFDDYGMSWVRQAPGKGLEWVSSLTPNGGSTYYADSVKGRFTISRDNAKNTLYLQMNSLKPEDTALYYCAKNSYYGAMDYWGQGTQVTVSSHHHHHH
In assay [13], B9 had an equilibrium dissociation constant (Kd) of 0.0209 nM, a koff of 8.15e-06 s⁻¹ and a kon of 390000 M⁻¹ s⁻¹.

B10: SVT06-SVT16-L123Q-GS2-SVG13M4-H6 (bispecific antibody)
chain: QVQLQESGGGSVQAGGSLRLSCTASELSYDDYTIAWFRRAAGEGRVEDGEGVASITKSYDRAYDNKINYGHSVKGRFTISRDNAKNTVYLQMTDLLPSDTAVYYCALDITPPGGVGASLTEGFLFDYWGQGTQVTVSSQVQLQESGGGSVQAGDSLRLSCAASGRTISNYAMGWFRQAPGKQREFVAAISRSDNTYYTDSVKGRFTISRDNAKNTLYLQMNSLKPEETAVYYCAADPNLMYESKWKYRALEAWGQGTQVTVSSGGGGSGGGSEVQLVESGGGLVQPGGSLRLSCEASGFTFDDYGMSWVRQAPGKGLEWVSSLTPNGGSTYYADSVKGRFTISRDNAKNTLYLQMNSLKPEDTALYYCAKNSYYGAMDYWGQGTQVTVSSHHHHHH
notes: also called pRL501
As to B10, the “Effective SDA Concentration at A450 0.2” value in assay [3] is 134 ng/mL. The same molecule came in with a maximal absorbance value in assay [9] of 0.78 A450.

B11: SVT16-L123Q-GS2-SVG13M4-H6 (bispecific antibody)
chain: QVQLQESGGGSVQAGDSLRLSCAASGRTISNYAMGWFRQAPGKQREFVAAISRSDNTYYTDSVKGRFTISRDNAKNTLYLQMNSLKPEETAVYYCAADPNLMYESKWKYRALEAWGQGTQVTVSSGGGGSGGGSEVQLVESGGGLVQPGGSLRLSCEASGFTFDDYGMSWVRQAPGKGLEWVSSLTPNGGSTYYADSVKGRFTISRDNAKNTLYLQMNSLKPEDTALYYCAKNSYYGAMDYWGQGTQVTVSSHHHHHH
Take B11: the “Effective SDA Concentration at A450 0.2” value in [3] turned out to be 127 ng/mL. Also, the maximal absorbance value in assay [9] worked out at 0.69 A450.
